Series [1] relates to HeLa Kyoto. In words: solubility in G1/S (NP-40 vs SDS abundance) (log2 ratio); higher = more soluble. Conditions: cell cycle stage: G1/S.
The test system of series [2] is HeLa Kyoto. Description: melting temperature (median over replicates), in situ; higher = more thermally stable.
In series [3] the test system is HeLa Kyoto. In words: solubility change mitosis vs G1/S (difference of NP-40 vs SDS log2 ratios) (log2 ratio difference); higher = more soluble in mitosis.
Series [4] deals with HeLa Kyoto. Description: thermal stability score vs G1/S (z-score of summed log2 fold changes over temperatures); higher = more thermally stable than in G1/S.
Where [5] appears, read: cell cycle stage: early G1 (4.5 h after nocodazole release).
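Wherever melting temperature (median over replicates), in situ is given: HeLa Kyoto cells synchronized by double thymidine or nocodazole block, proteins quantified by TMT10plex mass spectrometry, three independent biological replicates.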
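Wherever solubility change mitosis vs G1/S (difference of NP-40 vs SDS log2 ratios) is given: synchronized HeLa Kyoto cells (double thymidine block for G1/S, nocodazole release for mitosis), protein amounts in NP-40 versus SDS lysates quantified by mass spectrometry, three biological replicates.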
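Wherever solubility in G1/S (NP-40 vs SDS abundance) is given: HeLa Kyoto cells arrested at G1/S by double thymidine block, proteins quantified by TMT10plex mass spectrometry in mild NP-40 versus SDS extracts, three biological replicates.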
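Wherever thermal stability score vs G1/S (z-score of summed log2 fold changes over temperatures) is given: synchronized HeLa Kyoto cells, proteins quantified by TMT10plex mass spectrometry, three biological replicates, mitosis taken 0.5 h after nocodazole release, G1/S directly after double thymidine block.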

“MAAPLIPLSQQIPTGNSLYESYYKQVDPAYTGRVGASEAALFLKKSGLSDIILGKIWDLADPEGKGFLDKQGFYVALRLVACAQSGHEVTLSNLNLSMPPPKFHDTSSPLMVTPPSAEAHWAVRVEEKAKFDGIFESLLPINGLLSGDKVKPVLMNSKLPLDVLGRVWDLSDIDKDGHLDRDEFAVAMHLVYRALEKEPVPSALPPSLIPPSKRKKTVFPGAVPVLPASPPPKDSLRSTPSHGSVSSLNSTGSLSPKHSLKQTQPTVNWVVPVADKMRFDEIFLKTDLDLDGYVSGQEVKEIFMHSGLTQNLLAHIWALADTRQTGKLSKDQFALAMYFIQQKVSKGIDPPQVLSPDMVPPSERGTPGPDSSGSLGSGEFTGVKELDDISQEIAQLQREKYSLEQDIREKEEAIRQKTSEVQELQNDLDRETSSLQELEAQKQDAQDRLDEMDQQKAKLRDMLSDVRQKCQDETQMISSLKTQIQSQESDLKSQEDDLNRAKSELNRLQQEETQLEQSIQAGRVQLETIIKSLKSTQDEINQARSKLSQLHESRQEAHRSLEQYDQVLDGAHGASLTDLANLSEGVSLAERGSFGAMDDPFKNKALLFSNNTQELHPDPFQTEDPFKSDPFKGADPFKGDPFQNDPFAEQQTTSTDPFGGDPFKESDPFRGSATDDFFKKQTKNDPFTSDPFTKNPSLPSKLDPFESSDPFSSSSVSSKGSDPFGTLDPFGSGSFNSAEGFADFSQMSKPPPSGPFTSSLGGAGFSDDPFKSKQDTPALPPKKPAPPRPKPPSGKSTPVSQLGSADFPEAPDPFQPLGADSGDPFQSKKGFGDPFSGKDPFVPSSAAKPSKASASGFADFTSVS [EPS15L1]”: in series [1], the “solubility in G1/S (log2)” value was determined as 0.43. Also, the values for the melting temperature in series [2] (cell cycle stage: G1/S) and in series [2] (cell cycle stage: mitosis) were 49.6 °C and 51.2 °C, respectively. For the same sequence, in series [3], the “solubility change mitosis (log2)” value is -0.0276. Moreover, the thermal stability score was 0.244 in series [4] (setting [5]) and 1.69 in series [4] (cell cycle stage: mitosis).
Take “MAAQCVTKVALNVSCANLLDKDIGSKSDPLCVLFLNTSGQQWYEVERTERIKNCLNPQFSKTFIIDYYFEVVQKLKFGVYDIDNKTIELSDDDFLGECECTLGQIVSSKKLTRPLVMKTGRPAGKGSITISAEEIKDNRVVLFEMEARKLDNKDLFGKSDPYLEFHKQTSDGNWLMVHRTEVVKNNLNPVWRPFKISLNSLCYGDMDKTIKVECYDYDNDGSHDLIGTFQTTMTKLKEASRSSPVEFECINEKKRQKKKSYKNSGVISVKQCEITVECTFLDYIMGGCQLNFTVGVDFTGSNGDPRSPDSLHYISPNGVNEYLTALWSVGLVIQDYDADKMFPAFGFGAQIPPQWQVSHEFPMNFNPSNPYCNGIQGIVEAYRSCLPQIKLYGPTNFSPIINHVARFAAAATQQQTASQYFVLLIITDGVITDLDETRQAIVNASRLPMSIIIVGVGGADFSAMEFLDGDGGSLRSPLGEVAIRDIVQFVPFRQFQNAPKEALAQCVLAEIPQQVVGYFNTYKLLPPKNPATKQQKQ [CPNE3]”: the “solubility in G1/S (log2)” value in series [1] is -0.0447. Moreover, the melting temperature in series [2] (cell cycle stage: G1/S) and in series [2] (cell cycle stage: mitosis) was 50.8 °C throughout. Besides, the “solubility change mitosis (log2)” value in series [3] is -0.146. The thermal stability score in series [4] (setting [5]) was 1.91; in series [4] (cell cycle stage: mitosis), -0.0585.
As for “MAAQKDQQKDAEAEGLSGTTLLPKLIPSGAGREWLERRRATIRPWSTFVDQQRFSRPRNLGELCQRLVRNVEYYQSNYVFVFLGLILYCVVTSPMLLVALAVFFGACYILYLRTLESKLVLFGREVSPAHQYALAGGISFPFFWLAGAGSAVFWVLGATLVVIGSHAAFHQIEAVDGEELQMEPV [RABAC1]”, the “solubility in G1/S (log2)” value in series [1] was -0.392. Moreover, the melting temperature was determined as 59.6 °C in series [2] (cell cycle stage: G1/S) and 58.3 °C in series [2] (cell cycle stage: mitosis). The “solubility change mitosis (log2)” value in series [3] is -0.0714. Moreover, the results for the thermal stability score in series [4] (setting [5]) and in series [4] (cell cycle stage: mitosis) were -0.0851 and -0.547, respectively.
As to “MAAQQRDCGGAAQLAGPAAEADPLGRFTCPVCLEVYEKPVQVPCGHVFCSACLQECLKPKKPVCGVCRSALAPGVRAVELERQIESTETSCHGCRKNFFLSKIRSHVATCSKYQNYIMEGVKATIKDASLQPRNVPNRYTFPCPYCPEKNFDQEGLVEHCKLFHSTDTKSVVCPICASMPWGDPNYRSANFREHIQRRHRFSYDTFVDYDVDEEDMMNQVLQRSIIDQ [RNF114]”, the “solubility in G1/S (log2)” value in series [1] worked out at 0.162. Moreover, the melting temperature in series [2] (cell cycle stage: G1/S) stood at 53.2 °C; in series [2] (cell cycle stage: mitosis) it was 53.8 °C. For the same sequence, in series [3], the “solubility change mitosis (log2)” value was 0.0396. For the same sequence, the thermal stability score was -2.47 in series [4] (setting [5]) and -2.4 in series [4] (cell cycle stage: mitosis).
